The values below come from publication PMC11630572, “Discovery of Nanosota-9 as anti-Omicron nanobody therapeutic candidate” (PLOS Pathogens, 2024).

Assay in all cases: SPR; Biacore S200; spike ectodomain immobilized on CM5 chip by chemical crosslinking; Nanosota-9-His injected at 8, 16, 32, 64, 128 nM; running buffer 10 mM HEPES, 150 mM NaCl, 0.05% Tween 20
Settings in all cases: both partners purified

Assay [1] concerns the target T1, recombinant spike ectodomain of SARS-CoV-2 Omicron subvariant JN.1 (SARS-CoV-2 Omicron JN.1, strain).
T1 construct: The same GISAID id is printed for XBB.1.5 and JN.1; also called JN.1 spike ectodomain; JN.1 spike; not shown: His tag, C-terminal, kept

In assay [2] the target is T2, recombinant spike ectodomain of SARS-CoV-2 Omicron subvariant BA.5 (SARS-CoV-2 Omicron BA.5, strain).
T2 construct: also called BA.5 spike ectodomain; BA.5 spike; not shown: His tag, C-terminal, kept

The target in assay [3] is T3, recombinant spike ectodomain of SARS-CoV-2 Omicron subvariant XBB.1.5 (SARS-CoV-2 Omicron XBB.1.5, strain).
T3 construct: The same GISAID id is printed for XBB.1.5 and JN.1; also called XBB.1.5 spike ectodomain; XBB.1.5 spike; not shown: His tag, C-terminal, kept

B1: His-tagged Nanosota-9 (Nanosota-9-His) (VHH)
VHH: QVQLQESGGGLVQPGGSLRLSCTASGIALHTHATGWFRQAPGKEREGVSCISSGDGTTYYEDSVEGRFTISRDNAKNTVYLQMNSLKLEDTAVYYCAADPGAVCHSGSYYYTDDDFYYRGQGTQVTVSS
notes: Nanosota-9 nanobody from an alpaca immunized with the BA.5 spike ectodomain; also called monomeric Nanosota-9; not shown: His tag, C-terminal, kept
With B1, the values for the Kd in assay [1], in assay [2] and in assay [3] were 29.4 nM, 0.078 nM and 0.06 nM, respectively.

The term Kd denotes the constant that tells how readily two partners part at equilibrium.
